In US20240261446A1 (UNIVERSIT DE LI GE, published 2024):

Key:
[1] = molecular target: T1, recombinant biotinylated CD38 (human, UniProt P28907 43-300, biotinylated (sites not given)); assay: BLI
T1 construct: also called biotinylated CD38 antigen; biotin-labelled recombinant CD38 protein
T1 sequence: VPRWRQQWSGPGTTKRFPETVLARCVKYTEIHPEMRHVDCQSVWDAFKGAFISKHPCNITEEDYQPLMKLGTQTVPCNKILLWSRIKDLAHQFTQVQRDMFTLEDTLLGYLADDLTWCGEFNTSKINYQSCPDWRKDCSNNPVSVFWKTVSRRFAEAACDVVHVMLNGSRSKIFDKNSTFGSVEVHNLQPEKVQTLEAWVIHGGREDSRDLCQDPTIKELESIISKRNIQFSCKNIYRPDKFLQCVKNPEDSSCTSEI

[2] = molecular target: T1, recombinant biotinylated CD38; assay: BLI, biotinylated CD38 on streptavidin sensors, 1:1 model
[3] = molecular target: T1, recombinant biotinylated CD38; assay: biolayer interferometry; biotinylated CD38 on streptavidin sensors; 1:1 binding model
Description: Next, the ability of the anti-CD38 nanobodies to recognise the biotinylated CD38 antigen was investigated by Biolayer Interferometry (BLI) that allows determination of the binding kinetics parameters. The binding affinities were estimated by testing different concentrations (seven) of nanobodies with BLI. These experiments were realised in a 96-well plate and consisted of different steps. First, recombinant and biotinylated CD38 (10 μg/mL) was loaded on the surface of streptavidin-coupled sensors and washed using a PBS-based buffer (PBS 50 mM pH 7, BSA 0.1%, Tween 0.02%) in order to remove any unbound CD38. Then, biocytin was added to saturate the sensors and to avoid non-specific interactions during the subsequent association step. Afterwards, the nanobodies were diluted at concentrations and brought in contact with the CD38 coated sensors to monitor the association of the nanobodies to the receptors. […] Octet Data Analysis software version 8.0 was used for curve fitting and the determination of the binding parameters, including the KD, using a 1:1 binding model.

[4] = molecular target: T1, recombinant biotinylated CD38; assay: BLI, biotinylated CD38 on streptavidin sensors, 10 to 150 nM conjugate, 1:1 model
Description: First, recombinant and biotinylated CD38 (1 μg/mL) was loaded on the surface of streptavidin-coupled sensors and washed using a PBS-based buffer in order to remove any unbound CD38. Then, biocytin was added to saturate the sensors and to avoid non-specific interactions during the subsequent association step. Afterwards, the nanobodies-PNA1 were diluted at concentrations and brought in contact with the CD38 coated sensors to monitor the association of the nanobodies to the receptors. Finally, the sensors were placed in a fresh buffer in order to measure the dissociation rate of the nanobodies-PNA1 from the receptors. Octet Data Analysis software version 8.0 was used for curve fitting and the determination of the binding parameters, including the KD, using a 1:1 binding model.

[5] = molecular target: T1, recombinant biotinylated CD38; assay: BLI, immobilised CD38 on SA sensors, OctetHTX, conjugate 100 to 20 nM
Description: Values are from a serial dilution of conjugate from 100 to 20 nM.

[6] = molecular target: T2, human CD38 receptor expressed on cells (RPMI-8226 and other CD38+ cell lines) (human, UniProt P28907 1-300); assay: saturation binding of the radiolabelled nanobody on CD38+ RPMI-8226 cells, 1 hour at 4 °C
T2 construct: Endogenous CD38 of human myeloma and lymphoma cell lines; also called CD38^+ RPMI-8226 cells
T2 sequence: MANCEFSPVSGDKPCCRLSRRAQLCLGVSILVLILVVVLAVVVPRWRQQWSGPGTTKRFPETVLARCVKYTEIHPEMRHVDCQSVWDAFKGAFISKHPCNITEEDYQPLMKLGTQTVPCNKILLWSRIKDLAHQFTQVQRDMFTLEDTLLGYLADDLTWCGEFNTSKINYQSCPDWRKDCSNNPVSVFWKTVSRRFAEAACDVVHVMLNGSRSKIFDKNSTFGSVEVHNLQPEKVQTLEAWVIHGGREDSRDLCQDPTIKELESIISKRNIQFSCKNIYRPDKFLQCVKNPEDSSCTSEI

B1: anti-CD38 nanobody 2F8 (Nb2F8) with C-terminal hexahistidine tag (VHH)
VHH: QVQLVESGGGSVQAGGSLRLSCAASGYTDSDYIMAWFRQAPGKEREVVATIYIGGTYIHYADSVKGRFTISRDNAENTVYLQMNNLKPEDTAMYYCAATKWRPFISTRAAEYNYWGQGTLVTVSS
notes: Produced in E. coli WK6 with a His6 tag and also in an untagged form; The flow cytometry used the His-tagged form (anti-His detection); also called sdAb 2F8
[1]
  Kd: 1.46 nM
[2]
  Kd: 0.73 nM
[3]
  Kd: 0.734 nM

B2: Nb2F8-PNA1 conjugate (VHH)
VHH: B1 VHH
modifications: the C-terminal GGGSS is continued by the peptide nucleic acid a-g-t-c-t-g-g-a-t-g-t-a-g-t-c (SEQ ID NO: 15) and then E-K(DOTA)-AEEA-E-NH2
notes: Made by Sortase A ligation of PNA1 to Nb2F8-FL-SR-His6 and purified by reverse IMAC; also called nanobody 2F8 coupled with the PNA1
[4]
  Kd: 13.4 nM

B3: sdAb 2F8 conjugated to the bifunctional chelator DTPA (2F8-DTPA) (VHH)
VHH: B1 VHH
modifications: CHX-A''-DTPA conjugated to the free epsilon-amino groups of lysines (number and positions not stated)
notes: also called Nb2F8-DTPA conjugate
[5]
  Kd: 1.6 nM
  koff: 0.000412 s⁻¹
  kon: 258000 M⁻¹ s⁻¹

B4: ^111In-DTPA-Nb2F8 (VHH)
VHH: B1 VHH
modifications: CHX-A''-DTPA on lysine epsilon-amino groups (positions not stated), chelating Indium-111
[6]
  Kd: 16.7 nM
